# The nanobody polyreactivity screen of Harvey et al. (2022)
# Assay: yeast display, Sf9 membrane polyspecificity reagent, FACS + sequencing; frameworks hold sequencing errors
# Summary of the method: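 A nanobody's polyreactivity label depends on the gate it was sorted from. Yeast display cells were stained with 10% biotinylated, detergent-solubilized Sf9 membrane reagent for 1 hour at 4 °C, enriched on streptavidin microbeads and sorted by FACS. The low and high (top ~1%) gates were set on anti-HA fluorescence for expression and streptavidin fluorescence for reagent binding.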
row,Sequence,polyreactivity (PSR sort gate)
1,HVQLVESGGGLVQAGRSLRLSCAASGGIFYRYAMGWYRQAPGKEWELVATISRRGGRTYYADSVKGRFTISRDYAKNTVYLQMYSLKPEDTAVDYCAADEWQSGHGLEDDYWGQGTQVTVSS,high polyreactivity
2,QVQLVESGGGLVQAGGSLRISCAASGSIFVHYSMGWYRQAPGKEREFVAAISRGGGTTYYADSVKGRFTISRDNAKNTVYLQMNSLKPEDTAVYYCSARPSTDEGHRQSGLDYWGQGTQVTVSS,high polyreactivity
3,QVQLVETCGGLVHAGGSLRLSCAASGSTFVDNSMGRYRQAPGKERELGADISWSGGSTYYADSVKGRFTNSRDNAKTTVYLQMNSLKPQDTAVYYCAAYRNDYGYWTYVYYTDDYDYWGQGTQVTVSS,low polyreactivity
4,QVQLVESGGGLVQAGGSLRLSCAASGRIFDINAMGWYRQAPGKEWELVAAISRGGSTYYADSVKGRFTISLDNAKNTVYLNMNSLKPEDTAVYYCNIYRYRGSTVFDGYDYWGHGTQVTVSS,high polyreactivity
5,QVQLVESGGGLVQAGGSLRLSCAASGITFSGYVMGWYLQAPGKERELVAAISRSGGSTYYADSVKGRYTISRDNAKNTVYLQMNSLKPEDTAVYYCATASRTSRTGWAGYFWGQGTQVTVSS,high polyreactivity
6,QVQLVESGGGIVQAGGSLRLSCAASGLTFPQYAMGWYTQAPGKERELVAAISWNGGITYYADSVKGRFTISRDYAKNTVYLQMNSLKPEDTAVYYCNDDGGYGDYYYWGQGTQVTVSS,low polyreactivity
7,QVQLEESGGGLVQAGGSLPLSCAASGFIFGRYAMGWYRQAPGKEREFVASISWSGGSTYYADSVKGRFTISRDNAKNTVYLQMNSLKPEDTAVYYCAAYVRKDRSRGLYGYWGQGTQVTVSS,high polyreactivity
8,QVQLVESGGGLVQAGGSLRLSCAASGIIIGNNAMGWYRQAPGKERELVAPISRRGGSTYYADSVKGRFTISRDNAKNTVYLQMNSLKPEYTAVYYCAADIYRYNSYDYWGQGTQVTVSS,low polyreactivity
9,QVQLVESGGGLVQAGGSLRVSCAASGSTFTWYAMGWYRQAPGKVRELVAAIRWSGGNTYYADSVKGRFTISRDNAKNTVFLQMNSLKPEDTAVYYCNAYQYFPRYDYWGQGTQVTVSS,high polyreactivity
10,QVQLVESGGGLVQAGGSLRLTCAASGLTFYYYAMGRYRQATGKETELVASISTGGKKYYADSVKGRFTISRDNANNTVYLQMNSLKPEDTAVYYCAADRYDSSQFYYWGQGTQLTVSS,low polyreactivity
11,QVQLVESGGGLVQAGGSLRLSCAASGSTFRPYAMGWYRQAPGTERELVAAISWSGGRTYYADSVKGRFTISRDNAKNNVYLQMNSLKPEDTAVYYCTRAGRQPKNTYDYWGQGTQVTVSS,high polyreactivity
12,QVQLQESGGGLMQAGGSQRLSCAASGSISYYSDMCWYRQAPGKEREFVAGIGYGTTTNYADSVKGRFTTSRDNAKNTVYLQMISMKPEDTAVYYCAAYQGNGYEFYYWGQGTQVTVRS,low polyreactivity
13,QVQLVESGGGLVQAGGSLRLSCAASGRTFRLYAMGWYRHAPGKERELVAAISRRGGSTYYADSVKGRFTISRDNAKNTVYLQMNSLKPEDTAVYYCAKGLGSGQEIYGYDYWGQGTQVTVSS,high polyreactivity
14,QVQLVESGGGLVQAGGSLRLSCAASGSTSVINAMGGNRQAPGKERELVAGISGSGGSTYYADSVKGRFTISRDNAKNTVYLLMNSLKPEDTAVYYCAKRFYRPVPGGYYWGQGTQVTVSS,high polyreactivity
15,QVQLVESGGGLVQAGGSLRLSCAASGSIFIRNAMGWYRQAPGKERELVASISRSGAYTRYADSVKGRFTISRDNAKNTVYLQMNSLKPEDTAVYYCAVRLVNYLSYWRTYNYWGQGTQVTVSS,high polyreactivity
16,QVQLVESGGALVQAGGSLRVSCAASGFIFYGYAMGWYRQAPGKERELVAAISSGGGRTYYADSVKGRFTISRDNAKNTVYLQMNSLKPEDTAVYYCAAKVYYYTGGGGEDYWGQGTQVTVSS,low polyreactivity
17,QVQLVESGGGVVQAGGSLRLSCAASGRIFVSNPMGWYRQAPGKERELVAAITSGGRTNYADSVKGRFTISRDNAKNTVYLQMNSLKPEDTAVYYCNARGYSSRGFRRYSTKYDYWGQGTQVTVSS,high polyreactivity
18,QVQLVESGGGLVQAGGSLRLSCAASGSIFVGYAMGWYRQAPGKERELVAAITGSGTRTYYADSVKGRFTISRDNAKNTVFLQMNSLKPEDTAVYYCAAPLSYKNVKYDYWGQGTQVTVSS,low polyreactivity
19,QVQLVESGGGLVQAGGSLRLSCAASGFIFDIYAMGGYRPAPGKERELVAAISSGGSTNYADSVKGRFTISRDNAKNTVYLQMNSLKPEDTAVYYCAADRSDLAEEGYAGYDYWGQGTQVTVSS,low polyreactivity
20,QVHLVESAGGLVQAGGSLRLRCDASGRTFVLYTMGWYRQAPGKERELVAAIYGSGGRTYYADSVKGRLTISRDNAKNTVYLQMNSLKPEDTAVYYCAAYCQGLPLYGYWGQGTQVTVSS,high polyreactivity
21,QVQLVESGGGLVQAGGSLRLSCAASGFIIFDYAMGWYRQAPGKESELVAAITSGGSTDYADSVKGRFTLSRDNAKNTVYLQMNSLKPEDTAVYYCAAVYGSVSRYDYWGQGTQVTVSA,low polyreactivity
22,QVQLQERGGGLMQAGGSQRLSCAASGSISYYSDMGWYRQAPGTEREFVAGIGYGTTTNYADSVKGRFTTSRDNAKNTVDLQMISMKPEDTAVYYCAAYQGNGYEFYYWGQGTQVTVRS,low polyreactivity

row,Sequence,polyreactivity (PSR sort gate)
1,QVQLVESGGGLVQAGGSLRISCAASGIIFPYAMGWYRQAPGKERELVARITVGSTSYADSVKGRFTISRDNAKNTVYVQMNSLKPEDTAVYYCNKDSGEDDRWPYDYWGQGTQVTVSS,low polyreactivity
2,QVQLVESGGGLVQAGGSLRLSCAASGFIFPLYAMGWYRQAPGKERELVAAITWRGDTTSYADSVKGSFTISRDNAKNTVYLQMNSLKPEDTAVYYCAAEFYDWWYYGGGEYWGQGTQVTVSS,high polyreactivity
3,QVQLVESGGGLVQAGGSLRLSCAGSGFIFNVYAMGWYRQAPGKARELVAAISRSGGSTYYADSVKGRFTISRDNAKNTVYLQLNSLKPEDTAVYYCNARTPPSYYDMGYWGQGTQVTVSS,high polyreactivity
4,QVQLVESGGGLVQAGGSLRLSCAASGRIFGNYAMGWYRQAPGKESELVAAISGGGSTYYADSVKGRFTISRDNAKNTVYLQMNSLKPEDTAVYYCAARFLWSVFGRKGGYWGQGTQVTVSS,low polyreactivity
5,QVQLVESGGGLVQAGGSLRLSCAASGSTFDVYAMGWYRQAPGKERELVAALTSGGTTNYADSVKGRFTISRDNAKNTVYLQMNSLKPEDTAVSYCNARLTLRSYDYWGQGTLVTVSS,low polyreactivity
6,QVQLVESGGGLVQAGGSLRLSCAASGRTFTKYAMGWYRQAPGKERELVATIRGRGGSTYYADSVKGRFTISRDNAKYTVYLQMNSLKPEDTAVYYCAADYWFSSRKYDYWGQGTQVTVSS,high polyreactivity
7,QVQLVESGGGLVQAGGSLRLSCAASGSILDGNNMGWSRQAPGKERELVAAISWRGGSTYYADSVKGRFTISRDNAKNTVYLQMNSLKPEDTAVYYCNTYHPYWGSGFDYWGQGTQVTVSS,low polyreactivity
8,QVQLVESGGGLVQAGGSLRLSCAASGSIFDFYAMGCYRQAPGKERELVAAISGSGGSTYYADSVKGRFTMSRDNAKNTVYLQMNSLKPEDTAVYYCSYYYWGQRTQVTVSS,low polyreactivity
9,QVQLVESGGGLVQAGGSLRLSCAASGSTFGTNAMGWYRQAPGKERELVAAITYSGGRTYYADSVKGRFTISRDNAKNTVYLQMNSLKPEDTAVYYCAATFGFFYYQYEYWGLGTQVTVSS,low polyreactivity
10,QVQLVESGGGLVQAGGSLRLSCAASGNIFRVYDMGWYRQAPGKERELVAVIRWSSGRTYYADSVKGRFTISRDNAKNTVYLQMNSLKPEDTAVYYCATKLWRVPRNSHYDSYEYWGQGTQVTVSS,high polyreactivity
11,QVQLVESGGGLVQAGGSLRLSCAASGYIFNYNAMGWYRQAPGKERELVAVIRVSVGSTYYADSVKGRFTISRDNAKNTVYLQMNSLKPEDTAVYYCAADRGARGDYWGQGTQVTVSS,high polyreactivity
12,QVQLVESGGGLVQAGGSLRLSCAASGNIFTPYTMGWYRQAPGKERELVASINNAGTTKYADSVKGRFTISRDNAKNTVYLQMNSLKPEDTAVYFCAAQRRHALSSYPKHYYWGQGTQVTVSS,low polyreactivity
13,QVQLVESGGGLVQAGGSLRLSCAASGSTFGSYAMGWYRQAPGKERELVAAISWNGGRTYYADSVKGRFTISRDNAKNTVYFQRNSLKPEDTAVYYCAKVVKYQSGGGLEYWGQGTQVTVSS,high polyreactivity
14,QVQLVESGGGLVQAGGSLRLSCAASGYTFYEYAMGWYRQAPGKERELGAAIRGSGGGTYYADSVKGRFTISRDNAKNTVYLQMNSLKPEDTAVYYCAVKYAYPYAGVSAIRYYYWGQGTQVTVSS,low polyreactivity
15,QVQLVESGGGLVQAGGSLRLSCAASGSILGLYAMGWYRQAPGKERELVASITSSGSTYYADSVKGRFTISRDNAKNTVYLQMNSLKPEDTAVYYCAARYYYGRRYDYWGQGTQVTVSS,low polyreactivity
16,QVQLVESGGGLVQAGGSLRLSCAASGYIFSAYAMGWSRQAPGKERELVAVITSGGGTYYADSVKGRFTISRDNAKNTVYLLMNSLKTEDTAVYYCAAGPLCPYASRYGYWGQGTQVTVSS,high polyreactivity
17,QVHLVESGGGLVQAGRSLRLSCAASGIIFQLYAMGWYRQPPGKERELVATISSVGSTNYADSVKGRFTISRDNAKNTVYLEMTSLNPEDTAVYYCNAARYGWGYFYGLNYWGQGTQVTVSS,low polyreactivity
18,QVQLVESGGGLVQAGGSLRLSCAASGFTFRYYAMGWSRQDPGKERELVAAITNVGSTNYADSVKGRFTISRDNAKYTVYLLMNSLKPEDTAVYYCNAPRTPWRRSYDYWGQGTQVTVSW,high polyreactivity
19,QVQLVESGGGLVQAGGSLRLSCAASGRTFVYNAMGWYRQAPGKERELVATITFSGGSTYYADSVKGRFTISRDNAKNTVYLQMNSLKPEDTAVYYCNTQGVHHYYHAPQVRGYDYWGQGTQVTVSS,low polyreactivity
20,QVQLVESGGGLVQAGGRLRLSCAASGLIILRYTMGWYRQAPGKERELVAVITSGGRTYYADSVKGRFTISRDNAKNTVYLQMNSLKPEDTAVYYCAASVGLRTSFTGGGYWGQGTQVTVSS,high polyreactivity
21,QVQLVESGGGLVQARRRLRLSCAASGRTFRENFMGWYRQEPGKEREFVAISSSGASTYYADSVKGRFTISRDNAKNTVYLQMNSLKPEDTAVYYCAAKLYGAPYSKYYYWGHGTQVTVSS,high polyreactivity
